# Measurements reported in paper PMC9229378, “Copper-67-Labeled Bombesin Peptide for Targeted Radionuclide Therapy of Prostate Cancer” (Pharmaceuticals, 2022).
# Where two headings read alike, the source gives them in different places.
# What was measured:
# [1] = Biodistribution in normal tissues; assay type: in vivo, C57BL/6 female mice; details: for tissue uptake at 2 h / tissue uptake at 4 h / tissue uptake at 6 h / tissue uptake at 24 h / tissue uptake at 72 h / tissue uptake at 144 h / tissue uptake at 216 h / tissue uptake at 1 h: female, C57BL/6, mouse, iv, 0.37 MBq, total radioactivity
# Protocol: To determine the biodistribution of [^67Cu]Cu-SAR-BBN in normal tissues, 40 female C57BL/6 mice were evaluated in groups of 5 mice at various time points. [^67Cu]Cu-SAR-BBN was prepared in 0.9% saline with a concentration of 0.37 MBq (10 µCi) per 100 µL. Mice (n = 5) were injected with 0.37 MBq radiotracers via tail vein and sacrificed by cervical dislocation at 1 h, 2 h, 4 h, 6 h, 24 h, 3 days, 6 days, and 9 days. Blood, lung, liver, spleen, kidney, muscle, heart, bone, and pancreas were harvested and counted for activity on a gamma counter. The percent injected dose per gram for each tissue of interest (% ID/g) was calculated and expressed as Mean ± SD. All radioactivity measurements were corrected for decay.
# PC-3 tumors [2] = experiment: Tumor histology and Ki-67 immunostaining; assay type: in vivo, athymic nude mice
# Protocol: The kidneys, pancreas, livers, and tumors of 4 control mice and 4 treated mice were harvested and fixed in neutral buffered formalin. After fixation and dehydration, tissue samples were embedded in paraffin, and tissue sections were then stained with either hematoxylin and eosin (H&E) or Ki-67 for microscopic examination. H&E staining of tissue samples was prepared by the Anatomic and Molecular Pathology Core Lab, Washington University in St Louis. Ki-67 immunostaining was performed on 5 µm tissue sections of PC-3 tumors. The slides were baked in 55 °C oven for 60 min. The sections were deparaffinized, and heat-induced antigen retrieval was performed in citrate buffer 0.1 M pH 6.0 at 92 °C. After 20 min, the slides were cooled in 4 °C fridge for 15 min. The sections were then blocked with Dako Endogenous Enzyme Block (Dako North America, Inc., Carpinteria, CA, USA) for 10 min and washed twice with Dako Wash Buffer 1X. The sections were blocked with 10% goat serum in PBS for another 45 min and washed 2 × 5 min with Dako Wash Buffer 1X. The slides were then rinsed and incubated with Ki-67 antibody (1:100 dilution) overnight at 4 °C. […] Staining results were assessed by Olympus fluorescent microscope (BX51) and the cell Sense software in a blinded manner.
# Stability in PBS 1X = assay type: physicochemical; details: 1:1 with radiolabeled complex, 37 °C, 96 h, moderate agitation, radio-TLC, 50 mM DTPA, triplicate
# Protocol: (§1) Briefly, 100 µL of the radiolabeled complex was added to 100 µL PBS 1X or human serum (HSA […]) in triplicate. [^67Cu]Cu-SAR-BBN was incubated at 37 °C for 14, 24, 48, 72, and 96 h with moderate agitation. An aliquot (0.5 μL) was withdrawn at each specified time point. Radio-TLCs with a mobile phase of 50 mM DTPA were performed to evaluate the percentage of intact radiolabeled peptides.
# [3] = tested on: GRPR-positive PC-3 cell line; experiment: Cell binding and internalization; assay type: cell-based; details: PC-3 cells
# Protocol: The PC-3 cell line was purchased from ATCC (Manassas, VA, USA), revived from liquid nitrogen storage, and cultured at 37 °C, 5% CO2. PC-3 cells were cultured in media containing DMEM, 10% heat-inactivated fetal bovine serum (FBS) (Gibco, Thermo Fisher Scientific, Inc., Waltham, MA, USA), and 10 mM HEPES.
# A PC-3 cell suspension was prepared in 1X PBS at a concentration of 10^6 cells/100 μL. Eppendorf tubes (in triplicates) were pretreated with 5% bovine serum albumin (BSA) in PBS to block non-specific binding. Tyr^4-BBN, as a blocking agent, was diluted in 5% BSA in PBS. Then, 100 μL of cells and either 20 μg block or PBS 1X were added to each tube. Approximately 100,000 cpm of [^67Cu]Cu-SAR-BBN was added to the tubes. Cells were incubated at 37 °C at moderate speed to prevent cell settling. After each specified time point (30, 60, 120, 240, and 360 min), cells were centrifuged and the supernatant was aspirated from cell pellets, which was followed by two additional rinses with ice-cold PBS. Cells pellets were then collected and counted for activity on a gamma counter. To determine the fraction of internalized radiotracer, cells were treated with 2 × 0.5 mL of 20 mM sodium acetate (pH 4.0) for 2 min to remove surface-bound radioactivity and counted again for activity.
# PC-3 tumors [4] = experiment: Therapy study in PC-3 tumor-bearing mice; assay type: in vivo, athymic nude mice
# Protocol: (§2) To assess the therapeutic potential of [^67Cu]Cu-SAR-BBN, athymic nude mice bearing subcutaneous PC-3 tumors with a tumor size of ~150 mm^3 were randomly assigned into 2 groups (n = 12 mice per group). For treatment, mice were dosed intravenously with three injections of 24 MBq [^67Cu]Cu-SAR-BBN on days 0, 2, and 4, followed by a drug-free week before the injections of 24 MBq on days 14, 16, and 18. The total activity injected corresponded to 144 MBq. The control group was injected via tail vein with six injections of 0.9% saline at the same time points. Body weight and tumor volume (through caliper measurements) were monitored and recorded three times a week. Tumor size was calculated by the following formula: L × W^2/2, where L is the long diameter of the tumor and W is the short diameter of the tumor. […] Any remaining mice at day 54 were euthanized, and tumor volume and survival curves were generated and analyzed to evaluate the efficacy of [^67Cu]Cu-SAR-BBN. Percentage tumor growth inhibition was calculated as 100 × (1 − ΔT/ΔC), where ΔC and ΔT were determined by subtracting the mean tumor volume (in the vehicle control and treated group, respectively) on day 0 of treatment from the mean tumor volume on day 19 (the last day all mice remained in the study). […]
# [5] = Treatment-related toxicity (body weight, H&E histology of kidney, pancreas, liver); assay type: in vivo, athymic nude mice
# Protocol: as §2
# [6] = assay type: in vitro ADME, human
# Protocol: as §1
smiles,measurement,setting,value
"CC(C)C[C@H](NC(=O)C[C@H](O)[C@H](CC(C)C)NC(=O)[C@H](Cc1c[nH]cn1)NC(=O)CNC(=O)[C@@H](NC(=O)[C@H](C)NC(=O)[C@H](Cc1c[nH]c2ccccc12)NC(=O)[C@H](CCC(N)=O)NC(=O)[C@@H](Cc1ccccc1)NC(=O)CCOCCOCCOCCOCCNC(=O)CCCC(=O)NC12CNCCNCC(C)(CNCCNC1)CNCCNC2)C(C)C)C(N)=O [[^67Cu]Cu-SAR-BBN, metal not drawn]",Kidney %ID/g,"[1]; 1 h after i.v. injection of 0.37 MBq, mean, n = 5",6.15 %ID/g
same,tissue uptake at 2 h,"[1]; in vivo, Blood %ID/g",0.62 %ID/g
same,tissue uptake at 4 h,"[1]; in vivo, Blood %ID/g",0.53 %ID/g
same,tissue uptake at 6 h,"[1]; in vivo, Blood %ID/g",0.54 %ID/g
same,tissue uptake at 24 h,"[1]; in vivo, Blood %ID/g",0.33 %ID/g
same,tissue uptake at 72 h,"[1]; in vivo, Blood %ID/g",0.39 %ID/g
same,tissue uptake at 144 h,"[1]; in vivo, Blood %ID/g",0.11 %ID/g
same,tissue uptake at 216 h,"[1]; in vivo, Blood %ID/g",0.06 %ID/g
same,tissue uptake at 1 h,"[1]; in vivo, Bone %ID/g",0.88 %ID/g
same,tissue uptake at 2 h,"[1]; in vivo, Bone %ID/g",0.4 %ID/g
same,tissue uptake at 4 h,"[1]; in vivo, Bone %ID/g",0.47 %ID/g
same,tissue uptake at 6 h,"[1]; in vivo, Bone %ID/g",0.46 %ID/g
same,tissue uptake at 24 h,"[1]; in vivo, Bone %ID/g",0.31 %ID/g
same,tissue uptake at 72 h,"[1]; in vivo, Bone %ID/g",0.25 %ID/g
same,tissue uptake at 144 h,"[1]; in vivo, Bone %ID/g",0.09 %ID/g
same,tissue uptake at 216 h,"[1]; in vivo, Bone %ID/g",0.09 %ID/g
same,tissue uptake at 1 h,"[1]; in vivo, Heart %ID/g",1 %ID/g
same,tissue uptake at 2 h,"[1]; in vivo, Heart %ID/g",0.58 %ID/g
same,tissue uptake at 4 h,"[1]; in vivo, Heart %ID/g",0.78 %ID/g
same,tissue uptake at 6 h,"[1]; in vivo, Heart %ID/g",0.84 %ID/g
same,tissue uptake at 24 h,"[1]; in vivo, Heart %ID/g",0.84 %ID/g
same,tissue uptake at 72 h,"[1]; in vivo, Heart %ID/g",1.35 %ID/g
same,tissue uptake at 144 h,"[1]; in vivo, Heart %ID/g",0.93 %ID/g
same,tissue uptake at 216 h,"[1]; in vivo, Heart %ID/g",0.58 %ID/g
same,tissue uptake at 2 h,"[1]; in vivo, Liver %ID/g",5.08 %ID/g
same,tissue uptake at 4 h,"[1]; in vivo, Liver %ID/g",5.9 %ID/g
same,tissue uptake at 6 h,"[1]; in vivo, Liver %ID/g",6.78 %ID/g
same,tissue uptake at 24 h,"[1]; in vivo, Liver %ID/g",3.8 %ID/g
same,tissue uptake at 72 h,"[1]; in vivo, Liver %ID/g",4.03 %ID/g
same,tissue uptake at 144 h,"[1]; in vivo, Liver %ID/g",1.31 %ID/g
same,tissue uptake at 216 h,"[1]; in vivo, Liver %ID/g",0.59 %ID/g
same,tissue uptake at 2 h,"[1]; in vivo, Lung %ID/g",1.95 %ID/g
same,tissue uptake at 4 h,"[1]; in vivo, Lung %ID/g",2.68 %ID/g
same,tissue uptake at 6 h,"[1]; in vivo, Lung %ID/g",3.25 %ID/g
same,tissue uptake at 24 h,"[1]; in vivo, Lung %ID/g",1.81 %ID/g
same,tissue uptake at 72 h,"[1]; in vivo, Lung %ID/g",1.89 %ID/g
same,tissue uptake at 144 h,"[1]; in vivo, Lung %ID/g",0.68 %ID/g
same,tissue uptake at 216 h,"[1]; in vivo, Lung %ID/g",0.32 %ID/g
same,tissue uptake at 1 h,"[1]; in vivo, Muscle %ID/g",0.52 %ID/g
same,tissue uptake at 2 h,"[1]; in vivo, Muscle %ID/g",0.25 %ID/g
same,tissue uptake at 4 h,"[1]; in vivo, Muscle %ID/g",0.35 %ID/g
same,tissue uptake at 6 h,"[1]; in vivo, Muscle %ID/g",0.59 %ID/g
same,tissue uptake at 24 h,"[1]; in vivo, Muscle %ID/g",0.2 %ID/g
same,tissue uptake at 72 h,"[1]; in vivo, Muscle %ID/g",0.27 %ID/g
same,tissue uptake at 144 h,"[1]; in vivo, Muscle %ID/g",0.21 %ID/g
same,tissue uptake at 216 h,"[1]; in vivo, Muscle %ID/g",0.15 %ID/g
same,tissue uptake at 2 h,"[1]; in vivo, Pancreas %ID/g",14.7 %ID/g
same,tissue uptake at 4 h,"[1]; in vivo, Pancreas %ID/g",5.48 %ID/g
same,tissue uptake at 6 h,"[1]; in vivo, Pancreas %ID/g",3.38 %ID/g
same,tissue uptake at 24 h,"[1]; in vivo, Pancreas %ID/g",0.55 %ID/g
same,tissue uptake at 72 h,"[1]; in vivo, Pancreas %ID/g",0.75 %ID/g
same,tissue uptake at 144 h,"[1]; in vivo, Pancreas %ID/g",0.39 %ID/g
same,tissue uptake at 216 h,"[1]; in vivo, Pancreas %ID/g",0.22 %ID/g
same,tissue uptake at 1 h,"[1]; in vivo, Spleen %ID/g",1.94 %ID/g
same,tissue uptake at 2 h,"[1]; in vivo, Spleen %ID/g",1.27 %ID/g
same,tissue uptake at 4 h,"[1]; in vivo, Spleen %ID/g",0.94 %ID/g
same,tissue uptake at 6 h,"[1]; in vivo, Spleen %ID/g",0.9 %ID/g
same,tissue uptake at 24 h,"[1]; in vivo, Spleen %ID/g",0.51 %ID/g
same,tissue uptake at 72 h,"[1]; in vivo, Spleen %ID/g",0.74 %ID/g
same,tissue uptake at 144 h,"[1]; in vivo, Spleen %ID/g",0.3 %ID/g
same,tissue uptake at 216 h,"[1]; in vivo, Spleen %ID/g",0.14 %ID/g
same,tissue uptake at 2 h,"[1]; kidney, 2 h after i.v. injection of 0.37 MBq, mean, n = 5, read-out: Kidney %ID/g",3.99 %ID/g
same,tissue uptake at 4 h,"[1]; kidney, 4 h after i.v. injection of 0.37 MBq, mean, n = 5, read-out: Kidney %ID/g",3.48 %ID/g
same,tissue uptake at 6 h,"[1]; kidney, 6 h after i.v. injection of 0.37 MBq, mean, n = 5, read-out: Kidney %ID/g",3.53 %ID/g
same,tissue uptake at 24 h,"[1]; kidney, 24 h after i.v. injection of 0.37 MBq, mean, n = 5, read-out: Kidney %ID/g",2.37 %ID/g
same,tissue uptake at 72 h,"[1]; kidney, 72 h after i.v. injection of 0.37 MBq, mean, n = 5, read-out: Kidney %ID/g",3.1 %ID/g
same,tissue uptake at 144 h,"[1]; kidney, 6 days after i.v. injection of 0.37 MBq, mean, n = 5, read-out: Kidney %ID/g",1.37 %ID/g
same,tissue uptake at 216 h,"[1]; kidney, 9 days after i.v. injection of 0.37 MBq, mean, n = 5, read-out: Kidney %ID/g",0.74 %ID/g
same,reduction of activity circulating in the blood relative to the 1 h value,"[1]; mouse, in vivo",over 70%
same,tumor necrosis (blinded review of tumor samples),PC-3 tumors [2]; 4 tumors per group,more extensive areas of necrosis in three out of four tumors
same,"mean proliferation index (PI), Ki-67","PC-3 tumors [2]; tumor areas without necrosis, immune infiltrate or host stroma, 4 tumors, control 38.1%, p = 0.26",50.3%
same,intact radiolabeled peptide in PBS 1X,Stability in PBS 1X,greater than 95%
same,bound to the GRPR receptors,[3]; 37 °C,more than 50%
same,internalized into the cells,[3]; 37 °C,about 20%
same,"total bound with blocking (non-specific binding, % of total added radioactivity)",[3]; excess Tyr4-BBN (20 μg block),5.8 ± 0.1%
same,rapid recurrence of tumor needing early sacrifice,PC-3 tumors [4]; 144 MBq over 3 weeks,no animals having a rapid recurrence
same,median survival (time to tumor endpoint of 2500 mm^3),"PC-3 tumors [4]; six i.v. doses of 24 MBq, total 144 MBq, n = 12, study ended day 54, control 34.5 days, p = 0.0015",greater than 54 days
same,"histological changes in kidney, pancreas and liver vs control (H&E)","[5]; mouse, in vivo",no significant histological changes
same,deaths or euthanasia not related to tumor volume,"[5]; treated group, n = 12, censored in the survival analysis","one mouse from the [^67Cu]Cu-SAR-BBN group was euthanized due to tumor ulceration (day 38), and another two died due to unknown causes (day 5 and day 22)"
same,free 67Cu in human serum,[6],< 5%
